The target of test [1] is PD-L1 expressed by hepatocytes of C57BL/6 mice (mouse) (UniProt Q9EP73). Put plainly: cell-based or functional assay.
For test [2], the target named is H-2Kb/SIINFEKL pMHC complex on primary hepatocytes (mouse). Put plainly: cell-based or functional assay.

UniProt Q9EP73, sequence (Q9EP73 19-290): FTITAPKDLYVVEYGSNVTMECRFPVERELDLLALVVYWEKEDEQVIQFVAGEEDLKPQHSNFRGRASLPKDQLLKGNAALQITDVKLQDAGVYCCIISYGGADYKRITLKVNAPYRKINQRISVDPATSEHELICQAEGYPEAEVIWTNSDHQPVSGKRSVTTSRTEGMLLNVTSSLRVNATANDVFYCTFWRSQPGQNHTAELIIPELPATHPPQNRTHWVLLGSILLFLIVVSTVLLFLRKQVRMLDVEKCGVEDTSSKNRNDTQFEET

With “rat IgG isotype control Ab (Abcam) (antibody)”, in test [1], the frequency of CD45.1+ OT-I cells among viable CD3+CD8+ lymphocytes in dLNs, mice given hepatocytes treated with pGal-OVA and isotype control antibody stood at 0.2%; the frequency of dLN IFN-γ+ OT-I cells, pGal-OVA and isotype control antibody-treated hepatocytes is 29.2%; the frequency of dLN IL-2+ OT-I cells, pGal-OVA and isotype control antibody-treated hepatocytes came out at 4.21%.
In test [2], “T cell receptor of OT-I cells (transgenic CD8+ T cells specific for H-2Kb/SIINFEKL) (TCR)” returned a CD69+ OT-I cells after 24 hr co-culture with hepatocytes incubated with pGal-OVA alone of 17%; a CD69+ OT-I cells after 24 hr co-culture with hepatocytes treated with pGal-OVA and MG132 of 3.98%; a CD69+ OT-I cells after 24 hr co-culture with hepatocytes treated with pGal-OVA and chloroquine of 7.38%.
In test [1], “αPD-L1 blocking Ab (BioxCell, clone 10F.9G2) (antibody)” returned a frequency of CD45.1+ OT-I cells among viable CD3+CD8+ lymphocytes in dLNs, mice given pGal-OVA- and αPD-L1-treated hepatocytes of 0.45%; a frequency of IFN-γ+ OT-I cells after OVA/LPS challenge, αPD-L1-treated hepatocytes of 47.1%; a frequency of IL-2+ OT-I cells after OVA/LPS challenge, αPD-L1-treated hepatocytes of 7.53%.
